B1: HDV Ribozyme (parent)
chain: GGCCGGCAUGGUCCCAGCCUCCUCGCUGGCGCCGGCUGGGCAACAUUCCGAGGGGACCGUCCCCUCGGUAAUGGCGAAUGGGACCCA

Variants of: B1
Experiment: self-cleavage, relative activity (ratio to wild type); higher = more cleavage; co-transcriptional

Point of comparison: GGCCGGCAUGGCCCCAGCCUCCUCGCUGGCGCCGGCUGGGCAACAUUCCGAGGGGACCGUCCCCUCGGUAAUGGAGAAUGGGACCCA, self-cleavage 0.166. Against it:
- GGCCGGCAUGGCCCCAGCCUCCUCGCUGGCGCCGGCUGGGCAACAUUCCGAGGGGACCGUCCCCUCUGUAAUGGCGAAUGGGACCCA — higher, 0.38
- GGCCGGCAUGGCCCCAGCCUCCUCGCUGGCGCCGGCUGGGCAACAUUCCGAGGGGACCGUCCCCUCGGUAAUGGCUAAUGGGACCCA — higher, 0.489
- GGCCGGCAUGGCCCCAGCCUCCUCGCUGGCGCCGGCGGGGCAACAUUCCGAGGGGACCGUCCCCUCGGUAAUGGCGAAUGGGACCCA — higher, 0.332
- GGCCGGCAUGGCCCCAGCCUCCUCGCUGGCGCCGGCAGGGCAACAUUCCGAGGGGACCGUCCCCUCGGUAAUGGCGAAUGGGACCCA — lower, 0.147
- GGCCGGCAUGGCCCCAGCCUCCUCGCUGGCGCCGGCCGGGCAACAUUCCGAGGGGACCGUCCCCUCGGUAAUGGCGAAUGGGACCCA — higher, 0.35
- GGCCGGCAUGGCCCCAGCCGCCUCGCUGGCGCCGGCUGGGCAACAUUCCGAGGGGACCGUCCCCUCGGUAAUGGCGAAUGGGACCCA — lower, 0.0831
- GGCCGGCAUGGCCCCAGCCCCCUCGCUGGCGCCGGCUGGGCAACAUUCCGAGGGGACCGUCCCCUCGGUAAUGGCGAAUGGGACCCA — lower, 0
- GGCCGGCAUGGCCCCAGCCUCCUCGCUGGCCCCGGCUGGGCAACAUUCCGAGGGGACCGUCCCCUCGGUAAUGGCGAAUGGGACCCA — lower, 0.123
- GGCCGGCAUGGCCCCAGCCUCCUCGCUGGCACCGGCUGGGCAACAUUCCGAGGGGACCGUCCCCUCGGUAAUGGCGAAUGGGACCCA — higher, 0.237
- GGCCGGCAUGGCCCCAGCCUCCUCGCUGGCUCCGGCUGGGCAACAUUCCGAGGGGACCGUCCCCUCGGUAAUGGCGAAUGGGACCCA — lower, 0.0386
- GGCCGGCAUGGCCCCAGCCUCCUCGCUGGCGCCGGCUGGGCAACAUUCCGAGGGGACCGUCCCCACGGUAAUGGCGAAUGGGACCCA — higher, 0.489
- GGCCGGCAUGGCCCCAGCCUCCUCGCUGGCGCCGGCUGGGCAACAUUCCGAGGGGACCGUCCCCGCGGUAAUGGCGAAUGGGACCCA — higher, 0.323
- GGCCGGCAUGGCCCCAGCCUCCUCGCUGGCGCCGGCUGGGCAACAUUCCGAGGGGACCGUCCCCCCGGUAAUGGCGAAUGGGACCCA — higher, 0.492
- GGCCGGCAUGGCCCCAGCCUCCUCGCUGGCGCCGUCUGGGCAACAUUCCGAGGGGACCGUCCCCUCGGUAAUGGCGAAUGGGACCCA — lower, 0
- GGCCGGCAUGGCCCCAGCCUCCUCGCUGGCGCCGACUGGGCAACAUUCCGAGGGGACCGUCCCCUCGGUAAUGGCGAAUGGGACCCA — lower, 0.0723
- GGCCGGCAUGGCCCCAGCCUCCUCGCUGGCGCCGGCUGGGCAACAUUCCGAGGGGACCGUCCCUUCGGUAAUGGCGAAUGGGACCCA — higher, 0.665
- GGCCGGCAUGGCCCCACCCUCCUCGCUGGCGCCGGCUGGGCAACAUUCCGAGGGGACCGUCCCCUCGGUAAUGGCGAAUGGGACCCA — lower, 0.145
- GGCCGGCAUGGCCCCAGCCUCCUCGCUGGCGCCGGCUAGGCAACAUUCCGAGGGGACCGUCCCCUCGGUAAUGGCGAAUGGGACCCA — lower, 0.0875
- GGCCGGCAUGGCCCCAGCCUCCUCGCUGGCGCCGGCUCGGCAACAUUCCGAGGGGACCGUCCCCUCGGUAAUGGCGAAUGGGACCCA — lower, 0.0475
- GGCCGGCAUGGCCCCAGCCUCCUCGCUGGCGCCGGCUGGGCAACAUACCGAGGGGACCGUCCCCUCGGUAAUGGCGAAUGGGACCCA — higher, 0.289
- GGCCGGCAUGGCCCCAGCCUCCUCGCUGGCGCCGGCUGGGCAACAUUCCGAGGGGACCGUCCCCUCGGUAAUGGGGAAUGGGACCCA — the same, 0.166
- GGCCGGCAUGGCCCCAGCCUCCUCGCUGGCGCCGGCUGGGCAACAUUCCGAGGGGACCGUCCCCUCGGUAAUGGUGAAUGGGACCCA — lower, 0.104
- GGCCGGCAUGGCCCCAGCCUCCUCGCUGGCGCCGGCUGGGCAACAUUCCGAGGGGACCGUCCCCUCGGUAAUGGCGAAUGGGACCGA — lower, 0.104
- GGCCGGCAUGGCCCCAGCCUCCUCGCUGGCGCCAGCUGGGCAACAUUCCGAGGGGACCGUCCCCUCGGUAAUGGCGAAUGGGACCCA — lower, 0.0692
- GGCCGGCAUGGCCCCAGCCUCCUCGCUGGCGCCUGCUGGGCAACAUUCCGAGGGGACCGUCCCCUCGGUAAUGGCGAAUGGGACCCA — lower, 0.0396
- GGCCGGCAUGGCCCCAGCCUCCGCGCUGGCGCCGGCUGGGCAACAUUCCGAGGGGACCGUCCCCUCGGUAAUGGCGAAUGGGACCCA — higher, 0.208
- GGCCGGCAUGGCCCCAGCCUCCCCGCUGGCGCCGGCUGGGCAACAUUCCGAGGGGACCGUCCCCUCGGUAAUGGCGAAUGGGACCCA — higher, 0.755
- GGCCGGCAUGGCCCCAGCCUCCUCGCUGGCGCCGGCUGGGCAACAUUCCGAGGGGACCGUCCCCUCGGUAAUGGCGAAUGGGACACA — higher, 0.185
- GGCCGGCAUGGCCCCAGCCUCCUCGCUGGCGCCGGCUGGGCAACAUUCCGAGGGGACCGUCCCCUCGGUAAUGGCGAAUGGGACUCA — lower, 0
- GGCCGGCAUGGCCCCAGCCUCCUCGCUGGCGCCGGCUGGGCAACAUUCCGAGGGGACCCUCCCCUCGGUAAUGGCGAAUGGGACCCA — higher, 0.415
- GGCCGGCAUGGCCCCAGCCUCCUCGCUGGCGCCGGCUGGGCAACAUUCCGAGGGGACCUUCCCCUCGGUAAUGGCGAAUGGGACCCA — lower, 0.135
- GGCCGGCAUGGCCCCAGCCUCCUCGCUGGCGCCGGCUGGGCAACAUUCCGAGGGGACCGUCCCCUCGGUAAGGGCGAAUGGGACCCA — lower, 0.128
- GGCCGGCAUGGCCCCAGCCUCCUCGCUGGCGCCGGCUGGGCAACAUUCCGAGGGGACCGUCCCCUCGGGAAUGGCGAAUGGGACCCA — higher, 0.485
- GGCCGGCAUGGCCCCAGCCUCCUCGCUGGCGCCGGCUGGGCAACAUUCCGAGGGGACCGUCCCCUCGGCAAUGGCGAAUGGGACCCA — higher, 0.391
- GGCCGGCAUGGCCCCAGCCUCCUCGCUGGCGCCGGCUGGGCAACAUUCCGAGGGGACCGUCCCCUCGGUAAUGACGAAUGGGACCCA — lower, 0.0519
- GGCCGGCAUGGCCCCAGCCUCCUCGCUGGCGCCGGCUGGGCAACAUUCCGAGGGGACCGUCCCCUCGGUAAUGCCGAAUGGGACCCA — lower, 0
- GGCCGGCAUGGCCCCAGCCUCCUCGCUGGCGCCGGCUGGGCAACAUUCCGAGGGGACCGUCCCCUCGGUAAUGGCGAAUGUGACCCA — lower, 0
- GGCCGGCAUGGCCCCAGCCUCCUCGCUGGCGCCGGCUGGGCAACAUUCCGAGGGGACCGUCCCCUCGGUAAUGGCGAAUGAGACCCA — lower, 0.095
- GGCCGGCAUGGCCCCAGCCUCCUCGCUGGCGCCGGCUGGGCAACAUUCCGAGGGGACCGUCCCCUCGUUAAUGGCGAAUGGGACCCA — higher, 0.284
- GGCCGGCAUGGCCCCAGCCUCCUCGCUGGCGCCGGCUGGGCAACAUUCCGAGUGGACCGUCCCCUCGGUAAUGGCGAAUGGGACCCA — higher, 0.427
- GGCCGGCAUGGCCCCAGCCUCCUCGCUGGCGCCGGCUGAGCAACAUUCCGAGGGGACCGUCCCCUCGGUAAUGGCGAAUGGGACCCA — lower, 0.106
- GGCCGGCAUGGCCCCAGCCUCCUCGCUGGCGCCGGCUGCGCAACAUUCCGAGGGGACCGUCCCCUCGGUAAUGGCGAAUGGGACCCA — lower, 0
- GGCCGGCAUGGCCCCAGCCUCCUCGCUGGCGCCGGCUGGGCAACAUUCCAAGGGGACCGUCCCCUCGGUAAUGGCGAAUGGGACCCA — higher, 0.359
- GGCCGGCAUGGCCCCAGCCUCCUCGCUGGCGCCGGCUGGGCAACAUUCCUAGGGGACCGUCCCCUCGGUAAUGGCGAAUGGGACCCA — higher, 0.332
- GGCCGGCAUGGCCCCAGCCUCCUCGCUGGCGCCGGCUGGGCAACAUUCCGAGGGGACCGUCCCCUCGGUAAUAGCGAAUGGGACCCA — higher, 0.289
- GGCCGGCAUGGCCCCAGCCUCCUCGCCGGCGCCGGCUGGGCAACAUUCCGAGGGGACCGUCCCCUCGGUAAUGGCGAAUGGGACCCA — higher, 0.222
- GGCCGGCAUGGCCCCAGCCUCCUCGCAGGCGCCGGCUGGGCAACAUUCCGAGGGGACCGUCCCCUCGGUAAUGGCGAAUGGGACCCA — higher, 0.506
- GGCCGGCAUGGCCCCAGCCUCCUCGCUGGCGCCGGCUGGGCAACAUUCCGAGGGGACCGUCCCCUCGGUAAUGGCGAAUGGGAACCA — higher, 0.222
- GGCCGGCAUGGCCCCAGCCUCCUCGCUGGCGCCGGCUGGGCAACAUUCCGAGGGGACCGUCCCCUCGGUAAUGGCGAAUGGGAUCCA — higher, 0.208
- GGCCGGCAUGGGCCCAGCCUCCUCGCUGGCGCCGGCUGGGCACCAUUCCGAGGGGACCGUCCCCUCGGUAAUGGCGAAUGGGACCCA — higher, 0.431
- GGCCGGCAUGGCCCCAGCCUCCUCGCUGGCGCCGGCUGGGCAACAUUCCGAGGUGACCGUCCCCUCGGUAAUGGCGAAUGGGACCCA — higher, 0.415
- GGCCGGCAUGGCCCCAGCCUCCUCGCUGGCGCCGGCUGGGCAACAUUCCGAGGGGACCGACCCCUCGGUAAUGGCGAAUGGGACCCA — lower, 0.145
- GGCCGGCAUGGCCCCAGCCUCCUCGCUGGCGCCGGCUGGGCAACAUUCCGAGGGAACCGUCCCCUCGGUAAUGGCGAAUGGGACCCA — higher, 0.237
- GGCCGGCAUGGCCCCAGCCUCCUCGCUGGCGCCGGCUGGGCAACAUUCCGAGGGUACCGUCCCCUCGGUAAUGGCGAAUGGGACCCA — higher, 0.59
- GGCCGGCAUGGCCCCAGCCUCCUCGCUGACGCCGGCUGGGCAACAUUCCGAGGGGACCGUCCCCUCGGUAAUGGCGAAUGGGACCCA — lower, 0.0415
- GGCCGGCAUGGCCCCAGCCUCCUCGCUGCCGCCGGCUGGGCAACAUUCCGAGGGGACCGUCCCCUCGGUAAUGGCGAAUGGGACCCA — lower, 0.0462
- GGCCGGCAUGGCCCCAGCCUCCUCGCUGUCGCCGGCUGGGCAACAUUCCGAGGGGACCGUCCCCUCGGUAAUGGCGAAUGGGACCCA — lower, 0.0346
- GGCCGGCAUGGCCCCAGCCUCCUCGCUGGCGCCGGCUGGGCAACAUUCCGAUGGGACCGUCCCCUCGGUAAUGGCGAAUGGGACCCA — higher, 0.35
- GGCCGGCAUGGCCCCAGCCUCCUCGCUGGCGCCGGCUGGGCAACAUUCCGAAGGGACCGUCCCCUCGGUAAUGGCGAAUGGGACCCA — higher, 0.554
- GGCCGGCAUGGCCCCAGCCUCCUCGCUGGCGCCGGCUGGGCAACAUUCCGAGGGGACCGUCCCCUUGGUAAUGGCGAAUGGGACCCA — higher, 0.655
- GGCCGGCAUGGCCCCAGCCUCCUCGCUGGCGCCGGCUGGGCAACAUUCCGAGGGGACCGUCCCCUAGGUAAUGGCGAAUGGGACCCA — higher, 0.332
- GGCCGGCAUGGGCCCAGCCUCCUCGCUGGCGCCGGCUGGGCAACCUUCCGAGGGGACCGUCCCCUCGGUAAUGGCGAAUGGGACCCA — higher, 0.399
- GGCCGGCAUGGCCCCAGCCUCCUCGCUGGCGCCGGCUGGGCAACACUCCGAGGGGACCGUCCCCUCGGUAAUGGCGAAUGGGACCCA — lower, 0.101

From the RNAGym collection of RNA variant scans (doi:10.7554/elife.80360)
